# Test results as given in patent publication US20070065439A1.
# Target: type I IL-1 receptor (IL-1R) (UniProt P14778)
# Assay: cell-based or functional assay
# Sequence of type I IL-1 receptor (IL-1R) (P14778 18-569 limits assumed): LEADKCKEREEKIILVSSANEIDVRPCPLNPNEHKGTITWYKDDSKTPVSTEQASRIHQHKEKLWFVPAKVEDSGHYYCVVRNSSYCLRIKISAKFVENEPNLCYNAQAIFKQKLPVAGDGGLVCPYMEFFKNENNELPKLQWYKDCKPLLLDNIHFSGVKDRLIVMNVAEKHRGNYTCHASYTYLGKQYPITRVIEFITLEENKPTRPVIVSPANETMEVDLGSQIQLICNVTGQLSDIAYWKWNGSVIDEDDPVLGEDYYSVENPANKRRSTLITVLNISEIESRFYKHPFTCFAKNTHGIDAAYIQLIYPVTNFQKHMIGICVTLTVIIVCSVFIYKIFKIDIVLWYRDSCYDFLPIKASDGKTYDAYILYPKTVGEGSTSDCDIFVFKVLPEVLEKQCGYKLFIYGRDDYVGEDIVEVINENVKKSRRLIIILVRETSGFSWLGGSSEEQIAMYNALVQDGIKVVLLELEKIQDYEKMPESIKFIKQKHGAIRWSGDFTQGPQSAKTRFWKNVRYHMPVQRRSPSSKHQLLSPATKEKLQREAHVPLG
substance,measurement,value
anakinra (KINERET) (from UniProt P18510 26-177) (ligand),"EC50, inhibition of IL-1β-induced IL-6 production in MRC-5 cells",0.077 nM
same,"EC50, inhibition of IL-1β-induced IL-8 production in human whole blood",0.984 nM
